Test results: the supplement of paper PMC12855868

B1: library; numbered along this chain (parent)
chain: MAAAGGARLLRAASAVLGGPAGRWLHHAGSRAGSSGLLRNRGPGGSAEASRSLSVSARARSSSEDKITVHFINRDGETLTTKGKVGDSLLDVVVENNLDIDGFGACEGTLACSTCHLIFEDHIYEKLDAITDEENDMLDLAYGLTDRSRLGCQICLTKSMDNMTVRVPETVADARQSIDVGKTS

Variants of: B1
Experiment: scaled log2 fold change in cell abundance, elesclomol vs control (0 = silent mean, 1 = nonsense mean) (scaled log2 ratio); higher = higher viability under elesclomol (loss of FDX1 cuproptosis function)
Conditions: glucose 10 mM
Experimental: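 Deep mutational scan of full-length human FDX1: a pooled saturation-mutagenesis ORF library (every residue 2-184 mutated to all 19 amino acids plus stop, and silent codons where available) was expressed by lentivirus in FDX1-knockout ABC1 (14 days) or HEK293T (11 days) cells grown with elesclomol (ES) or DMSO control. Variant abundance came from ORF sequencing. The log2 fold change (ES vs control, mean of duplicates) was centred on the silent-variant mean (0) and scaled to the nonsense-variant mean (1). Higher values mean greater viability under ES, i.e. loss of FDX1 function in cuproptosis.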

[1] = with ABC1 FDX1 KO, elesclomol 5 nM, 14 days
[2] = with HEK293T FDX1 KO, elesclomol 40 nM, 11 days
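Further: variant abundance is its share of total variant reads in each endpoint sample, from next-generation sequencing of the integrated ORF PCR-amplified out of genomic DNA.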

Variant	scaled log2 fold change [1]	scaled log2 fold change [2]
T68D	0.0867	0.164
T68Y	0.308	0.0848
T68M	-0.209	0.641
H70D	0.33	1.31
H70E	0.148	0.829
H70V	0.191	-1.13
H70T	-0.764	–
H70W	-0.0809	-0.922
H70K	-0.215	0.573
H70Q	0.0254	-0.0243
H70L	-0.219	-0.612
H70A	0.42	-0.104
H70I	0.093	-0.0895
H70R	-0.349	-0.0802
H70M	-0.0655	0.0916
H70C	0.396	–
H70P	0.933	0.983
H70F	0.152	0.385
H70N	0.0583	-0.00885
H70Y	0.0486	–
H70S	0.277	-0.697
H70G	0.373	1.09
S63M	0.124	-0.609
S63C	0.302	-0.446

Variant	scaled log2 fold change [1]	scaled log2 fold change [2]
S63G	0.283	0.000639
S63N	-0.0613	-0.00891
S63V	0.189	0.0727
S63W	0.527	0.0977
S63T	0.0678	-0.0954
S63H	0.197	0.218
S63Q	-0.105	0.797
S63D	-0.272	-0.143
S63L	0.0558	-0.251
S63E	0.199	-0.451
S63Y	0.0691	0.7
S63F	0.0355	-0.0458
S63R	0.598	-0.598
S63P	0.175	0.000753
S63A	0.227	0.763
S63I	-1.11	0.315
S63K	0.173	-0.352
I72C	0.238	-0.937
I72D	0.34	-0.132
I72G	-0.24	-0.556
I72R	-0.783	0.539
I72Y	-1.04	-0.583
I72P	0.991	1.28
I72A	0.0764	-0.682

Variant	scaled log2 fold change [1]	scaled log2 fold change [2]
I72S	-0.00568	0.815
I72V	-0.116	-1.01
I72H	0.00982	-0.581
I72T	-0.0209	-0.405
I72N	0.0538	-0.293
I72E	-0.111	-0.295
I72F	-0.0218	-0.0982
I72M	-0.0135	0.0709
I72Q	-0.00335	0.0078
I72K	0.155	-0.273
I72L	-0.315	-0.275
I72W	0.00502	1.02
E64K	0.278	-0.162
E64T	0.135	-0.296
E64Q	-0.0857	-0.107
E64V	-0.321	-0.136
E64F	0.0956	–
E64W	-0.394	–
E64P	0.158	0.0559
E64A	-0.335	1.19
E64R	-0.913	0.0821
E64I	0.394	0.168
E64G	-0.323	0.0488
E64D	0.0681	-0.0197

Variant	scaled log2 fold change [1]	scaled log2 fold change [2]
E64M	-0.109	-0.0994
E64L	-0.17	-0.952
E64H	-0.531	-0.334
E64Y	0.374	-0.0105
E64C	-0.0781	0.793
E64S	-0.691	-0.469
F71T	0.523	0.991
F71D	1.1	1.37
F71R	1.04	1.38
F71I	-0.753	-0.554
F71M	0.0919	1.2
F71Q	1.3	0.999
F71H	1.22	1.17
F71S	0.983	1.08
F71P	1.18	1.13
F71N	1.07	1.17
F71V	0.271	-0.215
F71Y	0.112	-0.0161
F71E	1.02	1.5
F71G	1.09	0.752
F71A	0.63	0.751
F71C	0.161	0.0168
F71W	0.102	-0.726
F71K	1.18	1.46

Variant	scaled log2 fold change [1]	scaled log2 fold change [2]
F71L	-0.0155	-0.376
V69H	1.16	1.1
V69M	0.273	-0.0634
V69I	-0.0537	-0.536
V69Q	1.14	0.294
V69R	1.13	0.458
V69C	0.189	0.782
V69N	1.01	0.921
V69Y	1.05	1.86
V69E	1.06	1.55
V69P	1.29	0.484
V69A	0.0154	0.807
V69S	0.684	0.329
V69K	1.22	1.85
V69D	1.04	1.26
V69T	0.119	0.953
V69W	0.674	0.931
V69F	-0.809	-0.24
V69G	1.19	1.06
V69L	-0.537	-0.407
